Source: IntAct's records for PubMed 25910212

B1: PiggyBac transposable element-derived protein 1 (Homo sapiens), Q96JS3 (parent)
chain: MYEALPGPAPENEDGLVKVKEEDPTWEQVCNSQEGSSHTQEICRLRFRHFCYQEAHGPQEALAQLRELCHQWLRPEMHTKEQIMELLVLEQFLTILPKELQPCVKTYPLESGEEAVTVLENLETGSGDTGQQASVYIQGQDMHPMVAEYQGVSLECQSLQLLPGITTLKCEPPQRPQGNPQEVSGPVPHGSAHLQEKNPRDKAVVPVFNPVRSQTLVKTEEETAQAVAAEKWSHLSLTRRNLCGNSAQETVMSLSPMTEEIVTKDRLFKAKQETSEEMEQSGEASGKPNRECAPQIPCSTPIATERTVAHLNTLKDRHPGDLWARMHISSLEYAAGDITRKGRKKDKARVSELLQGLSFSGDSDVEKDNEPEIQPAQKKLKVSCFPEKSWTKRDIKPNFPSWSALDSGLLNLKSEKLNPVELFELFFDDETFNLIVNETNNYASQKNVSLEVTVQEMRCVFGVLLLSGFMRHPRREMYWEVSDTDQNLVRDAIRRDRFELIFSNLHFADNGHLDQKDKFTKLRPLIKQMNKNFLLYAPLEEYYCFDKSMCECFDSDQFLNGKPIRIGYKIWCGTTTQGYLVWFEPYQEESTMKVDEDPDLGLGGNLVMNFADVLLERGQYPYHLCFDSFFTSVKLLSALKKKGVRATGTIRENRTEKCPLMNVEHMKKMKRGYFDFRIEENNEIILCRWYGDGIISLCSNAVGIEPVNEVSCCDADNEEIPQISQPSIVKVYDECKEGVAKMDQIISKYRVRIRSKKWYSILVSYMIDVAMNNAWQLHRACNPGASLDPLDFRRFVAHFYLEHNAHLSD
partner: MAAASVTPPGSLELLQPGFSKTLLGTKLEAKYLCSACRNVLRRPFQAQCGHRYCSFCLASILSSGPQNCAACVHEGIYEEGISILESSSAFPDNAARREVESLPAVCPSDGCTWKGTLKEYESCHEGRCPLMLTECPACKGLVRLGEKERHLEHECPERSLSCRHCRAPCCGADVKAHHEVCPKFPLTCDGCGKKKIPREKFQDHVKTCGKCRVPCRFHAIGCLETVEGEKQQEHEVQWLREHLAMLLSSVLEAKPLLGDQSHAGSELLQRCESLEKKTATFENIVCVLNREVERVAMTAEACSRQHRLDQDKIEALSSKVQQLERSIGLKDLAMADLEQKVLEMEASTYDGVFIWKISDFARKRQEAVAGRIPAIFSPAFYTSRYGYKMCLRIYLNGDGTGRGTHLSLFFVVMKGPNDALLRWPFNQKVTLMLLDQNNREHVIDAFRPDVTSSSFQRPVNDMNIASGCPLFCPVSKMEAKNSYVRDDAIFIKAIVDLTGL
B2: Claudin-19 (Homo sapiens), Q8N6F1-2 (parent)
chain: MANSGLQLLGYFLALGGWVGIIASTALPQWKQSSYAGDAIITAVGLYEGLWMSCASQSTGQVQCKLYDSLLALDGHIQSARALMVVAVLLGFVAMVLSVVGMKCTRVGDSNPIAKGRVAIAGGALFILAGLCTLTAVSWYATLVTQEFFNPSTPVNARYEFGPALFVGWASAGLAVLGGSFLCCTCPEPERPNSSPQPYRPGPSAAAREYV
partner: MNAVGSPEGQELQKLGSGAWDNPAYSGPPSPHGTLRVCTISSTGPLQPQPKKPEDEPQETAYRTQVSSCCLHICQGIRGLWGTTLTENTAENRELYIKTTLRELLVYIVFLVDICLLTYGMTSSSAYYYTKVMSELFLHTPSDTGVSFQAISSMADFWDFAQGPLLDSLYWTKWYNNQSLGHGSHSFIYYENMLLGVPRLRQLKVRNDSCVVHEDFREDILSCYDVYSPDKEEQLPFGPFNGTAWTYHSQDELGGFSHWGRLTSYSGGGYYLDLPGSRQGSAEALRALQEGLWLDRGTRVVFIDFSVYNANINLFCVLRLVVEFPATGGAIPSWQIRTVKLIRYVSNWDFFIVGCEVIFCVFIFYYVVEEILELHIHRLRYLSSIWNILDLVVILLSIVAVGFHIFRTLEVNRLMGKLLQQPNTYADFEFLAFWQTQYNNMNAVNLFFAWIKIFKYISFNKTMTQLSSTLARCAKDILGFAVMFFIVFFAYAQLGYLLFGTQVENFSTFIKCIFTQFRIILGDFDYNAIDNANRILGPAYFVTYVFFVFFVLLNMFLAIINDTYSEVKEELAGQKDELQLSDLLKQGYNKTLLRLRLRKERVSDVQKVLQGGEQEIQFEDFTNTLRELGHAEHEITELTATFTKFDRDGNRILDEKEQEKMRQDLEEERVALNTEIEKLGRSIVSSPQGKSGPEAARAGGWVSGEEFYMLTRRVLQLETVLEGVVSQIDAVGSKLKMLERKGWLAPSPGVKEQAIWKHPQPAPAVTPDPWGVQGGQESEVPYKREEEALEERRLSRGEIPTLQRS
B3: U4/U6 small nuclear ribonucleoprotein Prp31 (Homo sapiens), Q8WWY3 (parent)
chain: MSLADELLADLEEAAEEEEGGSYGEEEEEPAIEDVQEETQLDLSGDSVKTIAKLWDSKMFAEIMMKIEEYISKQAKASEVMGPVEAAPEYRVIVDANNLTVEIENELNIIHKFIRDKYSKRFPELESLVPNALDYIRTVKELGNSLDKCKNNENLQQILTNATIMVVSVTASTTQGQQLSEEELERLEEACDMALELNASKHRIYEYVESRMSFIAPNLSIIIGASTAAKIMGVAGGLTNLSKMPACNIMLLGAQRKTLSGFSSTSVLPHTGYIYHSDIVQSLPPDLRRKAARLVAAKCTLAARVDSFHESTEGKVGYELKDEIERKFDKWQEPPPVKQVKPLPAPLDGQRKKRGGRRYRKMKERLGLTEIRKQANRMSFGEIEEDAYQEDLGFSLGHLGKSGSGRVRQTQVNEATKARISKTLQRTLQKQSVVYGGKSTIRDRSSGTASSVAFTPLQGLEIVNPQAAEKKVAEANQKYFSSMAEFLKVKGEKSGLMST
partner: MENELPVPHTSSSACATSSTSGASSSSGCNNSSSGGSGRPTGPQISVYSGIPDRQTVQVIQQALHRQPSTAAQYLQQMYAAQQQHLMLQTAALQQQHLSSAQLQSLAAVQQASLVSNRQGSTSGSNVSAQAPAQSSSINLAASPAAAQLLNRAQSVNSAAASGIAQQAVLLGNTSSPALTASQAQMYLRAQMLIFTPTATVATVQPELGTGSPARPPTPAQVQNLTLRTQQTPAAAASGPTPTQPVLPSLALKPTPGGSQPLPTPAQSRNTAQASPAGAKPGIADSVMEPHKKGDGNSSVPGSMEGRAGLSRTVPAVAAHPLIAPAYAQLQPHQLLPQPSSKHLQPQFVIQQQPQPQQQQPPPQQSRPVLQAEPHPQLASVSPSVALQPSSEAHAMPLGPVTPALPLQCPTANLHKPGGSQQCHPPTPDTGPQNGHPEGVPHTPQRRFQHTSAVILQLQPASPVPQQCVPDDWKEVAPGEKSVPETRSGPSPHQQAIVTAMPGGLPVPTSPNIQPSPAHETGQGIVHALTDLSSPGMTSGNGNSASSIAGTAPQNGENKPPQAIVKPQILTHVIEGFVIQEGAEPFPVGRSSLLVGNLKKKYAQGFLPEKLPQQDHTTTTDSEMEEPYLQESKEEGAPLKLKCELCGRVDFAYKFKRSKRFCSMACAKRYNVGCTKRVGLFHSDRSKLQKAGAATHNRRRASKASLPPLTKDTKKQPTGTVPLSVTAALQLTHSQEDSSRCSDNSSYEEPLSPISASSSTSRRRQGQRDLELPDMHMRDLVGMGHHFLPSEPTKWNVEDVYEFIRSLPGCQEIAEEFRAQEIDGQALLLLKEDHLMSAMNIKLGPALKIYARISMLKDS
B4: U4/U6 small nuclear ribonucleoprotein Prp31 (Homo sapiens), Q8WWY3 (parent)
chain: B3 chain
partner: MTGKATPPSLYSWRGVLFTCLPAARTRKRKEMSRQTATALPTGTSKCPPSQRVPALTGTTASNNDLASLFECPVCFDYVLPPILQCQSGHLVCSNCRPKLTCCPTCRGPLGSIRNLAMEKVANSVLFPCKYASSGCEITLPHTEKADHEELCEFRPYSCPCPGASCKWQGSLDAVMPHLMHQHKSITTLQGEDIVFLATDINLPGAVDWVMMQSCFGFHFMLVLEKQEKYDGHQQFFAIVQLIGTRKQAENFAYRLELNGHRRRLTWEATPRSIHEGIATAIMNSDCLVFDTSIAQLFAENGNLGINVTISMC
B5: Acetylcholine receptor subunit gamma (Homo sapiens), P07510-2 (parent)
chain: MHGGQGPLLLLLLLAVCLGAQGRNQEERLLADLMQNYDPNLRPAERDSDVVNVSLKLTLTNLISLNEREEALTTNVWIEMQWCDYRLRWDPRDYEGLWVLRVPSTMVWRPDIVLENKSQTYSTNEIDLQLSQEDGQTIEWIFIDPEAFTENGEWAIQHRPAKMLLDPAAPAQEAGHQKVVFYLLIQRKPLFYVINIIAPCVLISSVAILIHFLPAKAGGQKCTVAINVLLAQTVFLFLVAKKVPETSQAVPLISKYLTFLLVVTILIVVNAVVVLNVSLRSPHTHSMARGVRKVFLRLLPQLLRMHVRPLAPAAVQDTQSRLQNGSSGWSITTGEEVALCLPRSELLFQQWQRQGLVAAALEKLEKGPELGLSQFCGSLKQAAPAIQACVEACNLIACARHQQSHFDNGNEEWFLVGRVLDRVCFLAMLSLFICGTAGIFLMAHYNRVPALPFPGDPRPYLPSPD
partner: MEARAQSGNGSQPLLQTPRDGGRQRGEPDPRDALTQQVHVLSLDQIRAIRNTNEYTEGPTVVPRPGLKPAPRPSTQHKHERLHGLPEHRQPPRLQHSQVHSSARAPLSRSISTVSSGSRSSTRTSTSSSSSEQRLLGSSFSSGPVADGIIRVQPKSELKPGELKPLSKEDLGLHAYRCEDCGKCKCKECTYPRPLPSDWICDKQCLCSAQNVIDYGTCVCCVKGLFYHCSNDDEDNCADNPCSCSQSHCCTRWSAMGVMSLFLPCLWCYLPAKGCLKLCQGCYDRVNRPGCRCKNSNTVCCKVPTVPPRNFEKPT

Variants of: B1
Settings: with traf2_human TRAF2, Q12933
With H806D the “effect of a mutation on the interaction” value was “with no effect”.
P256L was tested, and the “effect of a mutation on the interaction” value was “with no effect”.
For G244E, the “effect of a mutation on the interaction” value was “with no effect”.

Variants of: B2
Settings: with pk2l1_human PKD2L1, Q9P0L9
With R200Q the “effect of a mutation on the interaction” value was “with no effect”.
In the case of L90P, the “effect of a mutation on the interaction” value is reported as “disrupting interaction strength”.
In the case of G20D, the “effect of a mutation on the interaction” value is reported as “disrupting interaction strength”.

Variants of: B3
Settings: with PHC2, Q8IXK0-5
For L107V, the “effect of a mutation on the interaction” value was “with no effect”.

Variants of: B4
Settings: with SIAH1, Q8IUQ4-2
L107V was tested, and the “effect of a mutation on the interaction” value was “with no effect”.

Variants of: B5
Settings: with spy2_human SPRY2, O43597
With R187C the “effect of a mutation on the interaction” value was “disrupting interaction strength”.
